The results in this text go back to patent CN111875700A (CUSABIO BIOTECH CO LTD, dated 2020).

The assay concerns the target T1, SARS-COV-2病毒N蛋白 (nucleocapsid protein) (SARS-COV-2, UniProt P0DTC9 1-419).
T1 construct: Recombinant N protein; also called 核衣壳蛋白
Put plainly: ELISA of scFv supernatants on coated N protein, detected with anti-E/HRP.

B1: 1A6单链抗体 (1A6 scFv) (scFv)
scFv: EVKLKESGAELVKPGASVKLSCTASGFNIKDTYMHWVKQRPGQGLEWIGYINPSTGYTEYNQKFKDKATLTADKSSSTAYMQLSSLTSEDSAVYYCARDALGWYFDVWGAGTLVTVSTGGGGSGGGGSGGGGSDVVMTQSHKFMSTSVGDRVSVTCKASQNVGTNVAWYQQKPGQFPKALIYSASYRYSGVPDRFTGSGSGTDFTLTISNVQSEDLAEYFCQQYNSYPLTFGAGTKLEIK
notes: also called 1A6 single-chain antibody; not shown: E-tag from vector pCANTAB5E (detected with anti-E/HRP)
For the molecule B1, the binding result is given as “binds”.
